Article PMC2528183

B1: 70 bp dsDNA (dsDNA)
DNA 1: GCGATCCTTATTAAAACGGCAACTCCTCCTCCGGCGGAAAGTCTTCCAAGCCTTCGTCAATGTCCACCCC
DNA 2: GGGGTGGACATTGACGAAGGCTTGGAAGACTTTCCGCCGGAGGAGGAGTTGCCGTTTTAATAAGGATCGC

Tests used:
[1] = biological target: Thermus thermophilus RecR (ttRecR), wild type (Thermus thermophilus); assay: SEC
[2] = biological target: Thermus thermophilus RecF (ttRecF) (Thermus thermophilus); assay: SAXS
[3] = biological target: Thermus thermophilus RecR (ttRecR), wild type (Thermus thermophilus); assay: SAXS
[4] = biological target: Thermus thermophilus RecR (ttRecR), wild type (Thermus thermophilus); assay: SAXS; remark: listed apart in the source
ttRecF = biological target: T1, ttRecF (Thermus thermophilus, UniProt Q5SLM9 1-343); assay: EMSA
T1 sequence: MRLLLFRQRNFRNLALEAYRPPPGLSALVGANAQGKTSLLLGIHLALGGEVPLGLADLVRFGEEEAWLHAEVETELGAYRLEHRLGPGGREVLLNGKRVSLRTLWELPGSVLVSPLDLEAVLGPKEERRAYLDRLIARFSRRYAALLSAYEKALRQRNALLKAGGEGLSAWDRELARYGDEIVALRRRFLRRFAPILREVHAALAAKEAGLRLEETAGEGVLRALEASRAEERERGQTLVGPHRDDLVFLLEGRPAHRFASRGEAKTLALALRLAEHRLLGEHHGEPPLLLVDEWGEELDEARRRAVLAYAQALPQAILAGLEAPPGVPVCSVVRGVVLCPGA

ttRecR = biological target: T2, ttRecR (Thermus thermophilus, UniProt Q5SHY0 1-194); assay: EMSA
T2 sequence: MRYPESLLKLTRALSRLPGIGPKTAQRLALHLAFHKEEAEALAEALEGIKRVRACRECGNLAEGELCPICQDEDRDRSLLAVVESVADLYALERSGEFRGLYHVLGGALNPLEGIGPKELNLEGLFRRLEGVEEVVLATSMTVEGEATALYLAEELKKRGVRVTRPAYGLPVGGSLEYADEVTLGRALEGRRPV

ttRecF;ttRecR = biological target: T3, ttRecF;ttRecR (Thermus thermophilus;Thermus …, UniProt Q5SLM9;Q5SHY0 1-343;1-194, |); assay: EMSA
T3 sequence 1: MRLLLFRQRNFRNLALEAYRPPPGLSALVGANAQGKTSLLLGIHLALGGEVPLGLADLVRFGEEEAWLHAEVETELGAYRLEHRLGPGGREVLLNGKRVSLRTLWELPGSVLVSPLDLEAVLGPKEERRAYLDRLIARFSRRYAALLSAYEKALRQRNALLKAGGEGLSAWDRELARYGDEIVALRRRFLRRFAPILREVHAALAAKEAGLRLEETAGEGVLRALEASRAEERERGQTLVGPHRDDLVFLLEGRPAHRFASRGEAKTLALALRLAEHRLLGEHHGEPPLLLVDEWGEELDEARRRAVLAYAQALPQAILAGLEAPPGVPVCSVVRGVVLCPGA
T3 sequence 2: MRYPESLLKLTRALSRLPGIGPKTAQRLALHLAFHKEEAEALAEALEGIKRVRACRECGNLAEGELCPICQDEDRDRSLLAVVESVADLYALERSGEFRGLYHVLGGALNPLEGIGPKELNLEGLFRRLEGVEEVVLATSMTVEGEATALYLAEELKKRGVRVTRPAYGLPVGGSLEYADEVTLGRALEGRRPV

Molecule	stoichiometry N [1]	N, ttRecF chains in the complex [2]	N, ttRecR chains in the complex [2]	stoichiometry N [3]	stoichiometry N [4]	binding result (ttRecF)	binding result (ttRecR)	binding result (ttRecF;ttRecR)
Thermus thermophilus RecR (ttRecR), wild type (natural protein)	2	2	4	2	4			
B1						binds	no binding	binds
